Assay results: patent US20210284730A1 (Janssen / Centocor, published 2021)

Key:
[1] = target: T1, human CD33 (human, UniProt P20138 18-364); assay: FACS binding to MOLM-13 tumor cell line (CD33+)
T1 construct: whole, on cells; The target is CD33 on CD33+ tumor cell lines; also called CD33 on MOLM-13, Kasumi-1, OCI-AML-3 and Kasumi-3 cells

[2] = target: T1, human CD33; assay: FACS binding to Kasumi-1 tumor cell line (CD33+)
[3] = target: T1, human CD33; assay: FACS binding to OCI-AML-3 tumor cell line (CD33+)

T1 sequence (P20138 18-364): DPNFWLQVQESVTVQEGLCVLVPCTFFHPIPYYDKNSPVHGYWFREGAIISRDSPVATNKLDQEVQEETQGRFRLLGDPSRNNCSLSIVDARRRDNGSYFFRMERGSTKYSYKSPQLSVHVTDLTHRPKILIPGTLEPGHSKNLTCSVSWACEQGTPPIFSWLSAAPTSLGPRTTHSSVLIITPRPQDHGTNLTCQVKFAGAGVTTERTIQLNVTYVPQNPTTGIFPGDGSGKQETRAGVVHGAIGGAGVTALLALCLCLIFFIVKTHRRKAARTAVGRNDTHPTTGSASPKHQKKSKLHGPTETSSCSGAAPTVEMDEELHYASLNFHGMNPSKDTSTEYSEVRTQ

B1: anti-CD33 antibody (clone C33B904) (antibody, V domains shown)
VH: EVQLVESGGGLVQPGRSLRLSCAASGFTFDDYAMHWVRQAPGKGLEWVSGIGWSGGSIVYADSVKGRFTISRDNAKNSLYLQMNSLRAEDTALYYCAKDSPYGDFFDYWGQGTLVTVSS
VL: DIVMTQSPDSLAVSLGERATINCKSSQTVFYSSNNKNYLAWYQQKPGQPPKLLISWASTRKSGVPDRFSGSGSGTDFTLTVSSLQAEDVAVYYCQHYYSTPYTFGQGTKLEIK
notes: also called anti-CD33 clone C33B904; anti-CD33 mAb
[1]
  EC50: 134 nM
[2]
  EC50: 82.2 nM
[3]
  EC50: 16.4 nM
